The record followed here is patent US20140357851A1 (published 2014).

Experiment [1] addresses T1, cynomolgus monkey PCSK9, V5- and 6xHis-tagged (cynomolgus monkey, UniProt A0A7N9D9N8 150-747).
T1 construct: also called cPCSK9-V5-6xHIS; CynoPCSK9
The experiment is described as follows: BIAcore SPR, antibody amine-coupled to CM5 chip, PCSK9 as analyte, pH 7.4.
Description: Briefly, the surface plasmon resonance experiments were performed using Biacore 2000 optical biosensors (Biacore, GE Healthcare, Piscataway, N.J.). […] The concentration of PCSK9 protein was varied at 2 fold intervals (the analyte) and was injected over the immobilized antibody surface (at a flow rate of 100 μl/min for 1.5 minutes).
Antibody binding kinetic parameters including kₐ (association rate constant), kd (dissociation rate constant), and KD (dissociation equilibrium constant) were determined using the BIA evaluation 3.1 computer program (BIAcore, Inc. Piscataway, N.J.).

Experiment [2] has as its target T1, cynomolgus monkey PCSK9, V5- and …. As to the kind of experiment: KinExA solution equilibrium. Background: A kinetic exclusion assay measures how much of one partner remains free in solution.
Excerpt: (§1) Briefly, Reacti-Gel™ (6×) (Pierce) was pre-coated with one of human, V5-tagged cyno or His-tagged mouse PCSK9 proteins and blocked with BSA. […] Equilibrium dissociation constant (KD) were obtained from nonlinear regression of the two sets of competition curves using a one-site homogeneous binding model. The KinExA® Pro software was employed in the analysis.
In experiment [3] the target is T2, mouse PCSK9, 8xHis-tagged (mouse, UniProt Q80W65 35-694, limits assumed).
T2 construct: also called mPCSK9-8xHIS; mPCSK9
As to the kind of experiment: KinExA solution equilibrium.
Excerpt: as §1

For experiment [4], the target named is T1, cynomolgus monkey PCSK9, V5- and …. The experiment is described as follows: BIAcore solution equilibrium assay, free PCSK9 read on immobilized 21B12. For orientation: Surface plasmon resonance follows binding to a sensor surface in real time, without labels.

B1: 31H4, anti-PCSK9 huIgG4 (antibody, V domains shown)
VH: EVQLVESGGGLVKPGGSLRLSCAASGFTFSSYSMNWVRQAPGKGLEWVSSISSSSSYISYADSVKGRFTISRDNAKNSLYLQMNSLRAEDTAVYFCARDYDFWSAYYDAFDVWGQGTMVTVSS
VL: QSVLTQPPSVSGAPGQRVTISCTGSSSNIGAGYDVHWYQQLPGTAPKLLISGNSNRPSGVPDRFSGSKSGTSASLAITGLQAEDEADYYCQSYDSSLSGSVFGGGTKLTVLQ
Broadly, the Kd is a measure of binding affinity in units of concentration. With B1, the figures for the Kd in experiment [1] and in experiment [2] were 0.19 nM and 0.002 nM, respectively.

B2: 16F12, anti-PCSK9 huIgG4 (antibody, V domains shown)
VH: QVHLVESGGGVVQPGRSLRLSCAASGFTFNSFGMHWVRQAPGKGLEWVALIWSDGSDEYYADSVKGRFTISRDNSKNTLYLQMNSLRAEDTAVYYCARAIAALYYYYGMDVWGQGTTVTVSS
VL: QSVLTQPPSVSAAPGQKVTISCSGSSSNIGNNFVSWYQQLPGTAPKLLIYDYNKRPSGIPDRFSGSKSGTSATLGITGLQTGDEADYYCGTWDSSLSAYVFGTGTRVTVLQ
notes: also called 16F12 IgG4; 16F12.1
B2: the “fold lower affinity to mouse PCSK9 than to human and cyno PCSK9” value in experiment [3] lay within 10 to 250 fold. The Kd in experiment [1] was 0.87 nM; in experiment [2], 0.016 nM.

B3: 21B12, anti-PCSK9 huIgG4 (antibody, V domains shown)
VH: QVQLVQSGAEVKKPGASVKVSCKASGYTLTSYGISWVRQAPGQGLEWMGWVSFYNGNTNYAQKLQGRGTMTTDPSTSTAYMELRSLRSDDTAVYYCARGYGMDVWGQGTTVTVSS
VL: QSALTQPASVSGSPGQSITISCTGTSSDVGGYNSVSWYQQHPGKAPKLMIYEVSNRPSGVSNRFSGSKSGNTASLTISGLQAEDEADYYCNSYTSTSMVFGGGTKLTVLQ
notes: also called 21B12 IgG4; 21B12.1
Consider B3, for which the equilibrium dissociation constant (Kd) in experiment [1] was found to be 0.36 nM; in experiment [4], 0.011 nM.
